Measured values: the supplement of paper PMC10724198
± gives the standard deviation of the averaged measurements.

Assays:
[1] = system: Saccharomyces cerevisiae; experiment: protein stability index of tFT-peptide fusion (C-terminal peptide) (PSI (0-1 scale)); higher = more stable (slower turnover)
Procedure: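 MPS profiling in S. cerevisiae of the tFT-X12 degron library: putative degron peptides plus stable controls, 12 aa, fused to the C-terminus of a sfGFP-mCherry timer. Cells are FACS-sorted into 8 mCherry/sfGFP bins and deep-sequenced. PSI runs from 0 (unstable) to 1 (stable). Backgrounds are wild type, das1Δ and doa10Δ at 30 °C, and wild type, das1Δ, cdc34-1 and cdc53-1 at 37 °C; 2-3 technical replicates each.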

[2] = system: Saccharomyces cerevisiae; experiment: as above; settings: genetic background: wild type; temperature: 30 C
[3] = genetic background: cdc34-1, temperature: 37 C
[4] = genetic background: cdc53-1, temperature: 37 C
[5] = genetic background: das1 deletion, temperature: 30 C
[6] = genetic background: das1 deletion, temperature: 37 C
[7] = genetic background: doa10 deletion, temperature: 30 C
[8] = genetic background: wild type, temperature: 30 C
[9] = genetic background: wild type, temperature: 37 C
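Further: PSI is a weighted mean of sequencing reads over stability bins, variants kept only with over 10 reads, mCherry proximal and sfGFP distal, peptide attached via GGGS linker.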

| Sequence | protein stability index [1, 3] | protein stability index [1, 4] | protein stability index [1, 5] | protein stability index [1, 6] | protein stability index [1, 7] | protein stability index [1, 8] | protein stability index [1, 9] | protein stability index [2] |
| --- | --- | --- | --- | --- | --- | --- | --- | --- |
| YCAMVAVGVVGG | 0.468 ± 0.037 | 0.506 ± 0.025 | 0.329 ± 0.021 | 0.503 ± 0.0096 | 0.306 ± 0.016 | 0.334 ± 0.018 | 0.493 ± 0.012 | 0.509 ± 0.03 |
| VCVLRWAVAPCR | 0.287 ± 0.0041 | 0.342 ± 0.0038 | 0.245 ± 0.035 | 0.429 ± 0.0067 | 0.207 ± 0.0051 | 0.235 ± 0.032 | 0.399 ± 0.013 | 0.356 ± 0.027 |
| VVCFVVCGFYLG | 0.235 ± 0.018 | 0.316 ± 0.021 | 0.261 ± 0.025 | 0.452 ± 0.011 | 0.224 ± 0.011 | 0.242 ± 0.051 | 0.428 ± 0.024 | 0.205 ± 0.055 |
| CMYTILRHKINN | 0.628 ± 0.047 | 0.621 ± 0.075 | 0.649 ± 0.024 | 0.763 ± 0.023 | 0.129 ± 0.036 | 0.147 ± 0.058 | 0.279 ± 0.029 | 0.296 ± 0.054 |
| RYLCLTPALYLS | 0.45 ± 0.014 | 0.5588 ± 0.0053 | 0.509 ± 0.027 | 0.621 ± 0.0072 | 0.125 ± 0.017 | 0.113 ± 0.012 | 0.157 ± 0.016 | 0.151 ± 0.11 |
| FLLYSILLAFLL | 0.524 ± 0.034 | 0.503 ± 0.02 | 0.415 ± 0.033 | 0.546 ± 0.0071 | 0.37 ± 0.012 | 0.345 ± 0.033 | 0.492 ± 0.037 | 0.436 ± 0.011 |
| GLVWSKCFFIVG | 0.637 ± 0.041 | 0.705 ± 0.016 | 0.547 ± 0.014 | 0.7105 ± 0.0018 | 0.2675 ± 0.0018 | 0.295 ± 0.022 | 0.528 ± 0.018 | 0.407 ± 0.033 |
| YVCVVSVLLGLL | 0.25 ± 0.017 | 0.319 ± 0.029 | 0.24 ± 0.026 | 0.441 ± 0.0082 | 0.19367 ± 8.4e-05 | 0.226 ± 0.015 | 0.3823 ± 0.0025 | 0.31 ± 0.031 |
| SCFRSLAVYFLC | 0.333 ± 0.025 | 0.624 ± 0.02 | 0.603 ± 0.033 | 0.678 ± 0.01 | 0.0706 ± 0.0018 | 0.07 ± 0.015 | 0.0763 ± 0.0025 | 0.155 ± 0.032 |
| RHRGHVRLALLN | 0.7 ± 0.079 | 0.845 ± 0.041 | 0.772 ± 0.013 | 0.791 ± 0.061 | 0.233 ± 0.025 | 0.26 ± 0.029 | 0.381 ± 0.017 | 0.396 ± 0.0095 |
| AFTFLLCWLFGV | 0.622 ± 0.024 | 0.671 ± 0.01 | 0.552 ± 0.018 | 0.627 ± 0.0065 | 0.453 ± 0.0068 | 0.454 ± 0.016 | 0.585 ± 0.041 | 0.467 ± 0.054 |
| VAALLCWLHLYA | 0.602 ± 0.018 | 0.639 ± 0.02 | 0.509 ± 0.019 | 0.622 ± 0.032 | 0.362 ± 0.007 | 0.409 ± 0.029 | 0.563 ± 0.0096 | 0.498 ± 0.011 |
| CFSLLFYTLSLL | 0.47 ± 0.029 | 0.499 ± 0.0054 | 0.393 ± 0.022 | 0.5305 ± 0.0034 | 0.2695 ± 0.00095 | 0.274 ± 0.021 | 0.409 ± 0.0057 | 0.351 ± 0.018 |
| GRGGLRVVVWLV | 0.518 ± 0.069 | 0.642 ± 0.016 | 0.496 ± 0.024 | 0.6652 ± 0.0041 | 0.11 ± 0.017 | 0.123 ± 0.022 | 0.143 ± 0.0029 | 0.189 ± 0.011 |
| DIRLWISCTLWF | 0.244 ± 0.019 | 0.361 ± 0.043 | 0.25 ± 0.029 | 0.425 ± 0.014 | 0.26 ± 0.0053 | 0.242 ± 0.025 | 0.37 ± 0.019 | 0.324 ± 0.013 |
| GILPIYNIISRL | 0.9679 ± 0.0088 | 0.948 ± 0.019 | 0.842 ± 0.054 | 0.891 ± 0.013 | 0.568 ± 0.016 | 0.547 ± 0.1 | 0.84 ± 0.031 | 0.553 ± 0.28 |
| LRVAWVCISIVA | 0.0375 ± 0.005 | 0.0899 ± 0.006 | 0.0876 ± 0.023 | 0.164 ± 0.0029 | 0.0363 ± 0.011 | 0.0495 ± 0.015 | 0.0664 ± 0.0091 | 0.117 ± 0.027 |

| Sequence | protein stability index [1, 3] | protein stability index [1, 4] | protein stability index [1, 5] | protein stability index [1, 6] | protein stability index [1, 7] | protein stability index [1, 8] | protein stability index [1, 9] | protein stability index [2] |
| --- | --- | --- | --- | --- | --- | --- | --- | --- |
| GITSFFSWSFLS | 0.6014 ± 0.0038 | 0.7537 ± 0.0057 | 0.682 ± 0.064 | 0.782 ± 0.055 | 0.169 ± 0.015 | 0.172 ± 0.0065 | 0.366 ± 0.0087 | 0.237 ± 0.048 |
| VARLGGRIGWEG | 0.694 ± 0.022 | 0.736 ± 0.019 | 0.634 ± 0.014 | 0.763 ± 0.015 | 0.652 ± 0.026 | 0.646 ± 0.013 | 0.7208 ± 0.0018 | 0.548 ± 0.17 |
| PFLLLVSPISSC | 0.416 ± 0.037 | 0.403 ± 0.01 | 0.301 ± 0.028 | 0.4637 ± 0.0012 | 0.271 ± 0.0057 | 0.302 ± 0.028 | 0.445 ± 0.014 | 0.433 ± 0.011 |
| SYVVVFVIFCVG | 0.1826 ± 0.00046 | 0.281 ± 0.028 | 0.206 ± 0.03 | 0.3424 ± 0.0014 | 0.173 ± 0.0049 | 0.214 ± 0.015 | 0.301 ± 0.0081 | 0.224 ± 0.099 |
| PYSLYASSSSPL | 0.696 ± 0.045 | 0.7492 ± 0.0029 | 0.68 ± 0.023 | 0.748 ± 0.019 | 0.6716 ± 0.0016 | 0.676 ± 0.017 | 0.716 ± 0.015 | 0.727 ± 0.024 |
| GFFLCTCIRFWV | 0.452 ± 0.018 | 0.518 ± 0.034 | 0.386 ± 0.027 | 0.544 ± 0.01 | 0.2478 ± 0.0011 | 0.254 ± 0.028 | 0.421 ± 0.018 | 0.316 ± 0.016 |
| TVIVCCHLEVVY | 0.0776 ± 0.07 | 0.0367 ± 0.024 | 0.0294 ± 0.014 | 0.0693 ± 0.013 | 0.0254 ± 0.013 | 0.0249 ± 0.0089 | 0.0685 ± 0.023 | 0.0135 ± 0.0057 |
| FFRVCNALLLVC | 0.0637 ± 0.058 | 0.0334 ± 0.0086 | 0.148 ± 0.026 | 0.152 ± 0.025 | 0.0531 ± 0.0033 | 0.0394 ± 0.01 | 0.0662 ± 0.015 | 0.0759 ± 0.035 |
| FCTVYFVCVWEM | 0.1957 ± 0.0014 | 0.273 ± 0.022 | 0.209 ± 0.043 | 0.393 ± 0.033 | 0.177 ± 0.03 | 0.212 ± 0.015 | 0.362 ± 0.014 | 0.334 ± 0.055 |
| LFWFRGTIVTPR | 0.693 ± 0.027 | 0.726 ± 0.017 | 0.638 ± 0.015 | 0.7371 ± 0.0069 | 0.635 ± 0.019 | 0.6335 ± 0.0044 | 0.705 ± 0.018 | 0.693 ± 0.034 |
| LRVPCPPCCVFV | 0.568 ± 0.049 | 0.69936 ± 0.0003 | 0.616 ± 0.016 | 0.727 ± 0.0099 | 0.33 ± 0.015 | 0.334 ± 0.009 | 0.4302 ± 0.0026 | 0.398 ± 0.027 |
| FTGLCQGLWLGW | 0.691 ± 0.019 | 0.743 ± 0.014 | 0.658 ± 0.059 | 0.775 ± 0.02 | 0.684 ± 0.039 | 0.649 ± 0.013 | 0.7501 ± 0.0044 | 0.738 ± 0.025 |
| CVLLVFLHLCLA | 0.292 ± 0.0051 | 0.392 ± 0.022 | 0.283 ± 0.027 | 0.4448 ± 0.0025 | 0.256 ± 0.014 | 0.263 ± 0.049 | 0.402 ± 0.0075 | 0.381 ± 0.0019 |
| VMYRGVRISWFL | 0.576 ± 0.036 | 0.582 ± 0.008 | 0.424 ± 0.021 | 0.504 ± 0.014 | 0.343 ± 0.04 | 0.354 ± 0.036 | 0.449 ± 0.0086 | 0.38459 ± 6.1e-05 |
| VIRSIVSAYMIC | 0.552 ± 0.043 | 0.649 ± 0.013 | 0.563 ± 0.013 | 0.6726 ± 0.0028 | 0.255 ± 0.0033 | 0.248 ± 0.02 | 0.334 ± 0.037 | 0.293 ± 0.051 |
| AFFRCKCYVGTP | 0.568 ± 0.011 | 0.584 ± 0.046 | 0.502 ± 0.017 | 0.598 ± 0.013 | 0.512 ± 0.013 | 0.495 ± 0.0099 | 0.561 ± 0.025 | 0.511 ± 0.057 |
